Here are results for five molecules from PMC3742746, “A Novel TetR Family Transcriptional Regulator, SAV576, Negatively Controls Avermectin Biosynthesis in Streptomyces avermitilis”.

The target in this data set is T1, His6-SAV576 (TetR family regulator) (Streptomyces avermitilis ATCC31267, UniProt Q82QD4 1-218).
T1 sequence: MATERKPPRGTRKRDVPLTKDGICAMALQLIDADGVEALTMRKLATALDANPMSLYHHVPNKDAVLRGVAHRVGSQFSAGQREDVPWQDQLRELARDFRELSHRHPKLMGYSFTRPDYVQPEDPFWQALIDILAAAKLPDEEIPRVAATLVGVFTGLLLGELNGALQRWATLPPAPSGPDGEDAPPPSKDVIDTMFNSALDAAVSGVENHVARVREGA
The data set can be described thus: EMSA; EMSA: Roche DIG Gel Shift Kit binding buffer (composition not stated), 0.3 nM probe, 1 µg poly[d(I-C)] in 20 µl, 25°C 30 min, 5% PAGE 0.5x TBE; footprinting: 400 ng DNA in 50 µl, 25°C 30 min, DNase I at 37°C. The note with it: protein: recombinant; tags: His6 (pET-28a); chain copies: 2; label: 3' DIG; blunt.

B1: probe 6 (dsDNA)
DNA 1: AGTCGCCATACGCTGTACGGTACCAGCGCCCGCGGCACTGCGG
DNA 2: CCGCAGTGCCGCGGGCGCTGGTACCGTACAGCGTATGGCGACT
Consider B1, for which the binding result is “binds”.

B2: probe 2 (dsDNA)
DNA 1: CCCAGGTCTGCCGATTGAGTTTCCATACGTCGTATGGTACTAC
DNA 2: GTAGTACCATACGACGTATGGAAACTCAATCGGCAGACCTGGG
Turning to B2, the binding result is on record as “binds”.

B3: probe 1m (dsDNA)
DNA 1: TGAAGCGAATTCGAAGCTTGAAACGGGGCGCTGCCGTACCGGC
DNA 2: GCCGGTACGGCAGCGCCCCGTTTCAAGCTTCGAATTCGCTTCA
For B3, the binding result is “no binding”.

B4: probe 2m (dsDNA)
DNA 1: CCCAGGTCTGCCGATTGAGTTTCGAATTCTAAGCTTGTACTAC
DNA 2: GTAGTACAAGCTTAGAATTCGAAACTCAATCGGCAGACCTGGG
On to B4, for which the binding result was “no binding”.

B5: probe 6m (dsDNA)
DNA 1: AGTCGCGAATTCCAAGCTTGTACCAGCGCCCGCGGCACTGCGG
DNA 2: CCGCAGTGCCGCGGGCGCTGGTACAAGCTTGGAATTCGCGACT
Turning to B5, the binding result was “no binding”.
